The assay addresses B7.1 on mouse macrophages (CRL-2751) (mouse) (UniProt Q00609). As to the kind of experiment: flow cytometry on mouse macrophages stained with FITC anti-B7-1 after medium from naive HEK-293 cells.
UniProt Q00609, sequence (Q00609 38-306): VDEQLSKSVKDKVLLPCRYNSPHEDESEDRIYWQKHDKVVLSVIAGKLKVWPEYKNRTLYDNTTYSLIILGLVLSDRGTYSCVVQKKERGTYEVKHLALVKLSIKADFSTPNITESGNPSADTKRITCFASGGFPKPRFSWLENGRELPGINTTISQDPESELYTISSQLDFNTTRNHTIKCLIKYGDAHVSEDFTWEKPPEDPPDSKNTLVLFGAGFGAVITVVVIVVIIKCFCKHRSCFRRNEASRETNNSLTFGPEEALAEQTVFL

In turn, “Armenian hamster IgG FITC-conjugated anti B7-1 (Santa Cruz Biotechnology) (antibody)” returned a percent of macrophages B7-positive in the absence of CTLA4IgG of 18%.

The values above are taken from patent US20140147418A1.
